Assay in all cases: SPR
Background: In SPR one partner is held on a chip, and binding of the other changes the refractive index at the surface.

The target of assay [1] is T1, WT SARS-CoV-2 S RBD protein (SARS-CoV-2, UniProt P0DTC2).
Another assay concerns the target SARS-CoV-2 S protein (SARS-CoV-2, UniProt P0DTC2).
Assay [2] addresses T1, WT SARS-CoV-2 S RBD protein. The source holds these as a separate data set.

As a reminder, the Kd is the equilibrium constant for the complex coming apart. Usually koff stands for the first-order rate constant of dissociation. Higher therefore signals fast dissociation.

B1: P5-22 (antibody, V domains shown)
VH: EVQLVESGGGLVKPGGSLRLSCAASGFTFRDYDIIWIRQAPGKGLEWVSYISRSGSTIYYSDSVRGRFTISRDNAKNSVYLQMNSLRAEDTAVYYCARDFGFEGPRMDVWGQGTTVTVSS
VL: DIQMTQSPSSLSASVGDRVTITCQASQDIKNYLNWYQQKPGKAPKLLIYDASNLETGVPSRFSGSGSGTDFTFTISSLQPEDIATYYCQQFDNLPITFGQGTRLEIK
With B1, the values for the Kd (in assay [1]; with SARS-CoV-2 S protein) were below 4.59 pM and below 3.34 pM, respectively. The molecule further showed a koff in assay [2] below 1e-05 s⁻¹.

B2: polymeric P5-22 (antibody, V domains shown)
VH: EVQLVESGGGLVKPGGSLRLSCAASGFTFRDYDIIWIRQAPGKGLEWVSYISRSGSTIYYSDSVRGRFTISRDNAKNSVYLQMNSLRAEDTAVYYCARDFGFEGPRMDVWGQGTTVTVSS
VL: DIQMTQSPSSLSASVGDRVTITCQASQDIKNYLNWYQQKPGKAPKLLIYDASNLETGVPSRFSGSGSGTDFTFTISSLQPEDIATYYCQQFDNLPITFGQGTRLEIK
Take B2: the Kd in assay [1] was below 0.498 pM. This molecule also registered a koff in assay [2] below 1e-05 s⁻¹.

These data come from paper PMC8843702 (2022).
